B1: TPR t1 (parent)
chain: GACCAAUCUGCCCUCAGAGCUCGAGAACAUCUUCGGAUGCAGAGGAGGCAGGCUUCGGUGGCGCGAUAGCGCCAACGUCCUCAACCUCCAAUGCAUCCCACCACAUGAUGAUGCCUGAAGAGCCUUGGUUUUUUG

Variants of: B1
Assay: polymerase ribozyme fitness, log enrichment relative to wild type (log ratio); higher = more active; in vitro selection for triplet polymerase activity
In short: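 Mutant libraries for each subunit of a heterodimeric triplet polymerase ribozyme were made by PCR and then transcribed. Each library underwent one round of in vitro selection in triplicate: annealing with a biotinylated primer, the partner subunit and triplets, frozen incubation at −7 °C, gel excision of extended constructs, streptavidin-bead capture and RT-PCR. Input and output libraries were Illumina-sequenced, and only genotypes with ≥10 input reads and ≥1 read per output were kept. Fitness is the logarithm, base 2, of genotype enrichment over wild-type enrichment, computed from inverse-variance-weighted replicate averages.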

| Variant | polymerase ribozyme fitness (log ratio) |
| --- | --- |
| G69C C72A C94G | -5.12 |
| G47U G57A C73A C85G U106A U133A | -5.19 |
| C72U G93U A111G | -2.76 |
| A26U U54C U133A | -4 |
| C28U G48A C53G C89U | -3.42 |
| G77A C101A | -1.18 |
| U7G A41C C56U | -0.335 |
| C28G A41C | -4.58 |
| C49U G69U U78C U81A C114G G117U G127U | -5.33 |
| G17U C89U | -1.77 |
| C13G G60C G77U C101A G120C | -1.78 |
| C72G G110A | -1.14 |
| C13G C85A U112C | -1.28 |
| A27U G44U C56A U133A | -4.31 |
| C3U A37U C40A G60U | -1.23 |
| C56G U116C U130G | -0.701 |
| A74U U116G U133G | -2.9 |
| C72U U112C | 1.19 |
| U30C A46G A74G G113A | -2.75 |
| G60A C82U C85G U129A | -3 |
| G65A G117A | -4.47 |
| U7C G45U G110C | -5.16 |
| U38A C64U U132A | -0.788 |
| C4U C15U | -1.62 |

| Variant | polymerase ribozyme fitness (log ratio) |
| --- | --- |
| G42U A43C G69C A74U U87G C89G | -5.66 |
| C89A G113C G117A | -5.73 |
| U21A G63A | -1.05 |
| C70U C72G G77C | -2.87 |
| G57U A95U A121U C124U | 1.18 |
| G42U U78C C123G | 0.17 |
| C49U G52A C73G A121U | -1.14 |
| G36A C86G | -2.04 |
| U7A C40U G48U C53G C85A A119U | -0.816 |
| C15U U38G G45A G60C A74U | -4.34 |
| C82G C86A A121U | 1.39 |
| G47A C56A G113U C114A A121G | -2.45 |
| C56A G122A | -0.936 |
| G71A A84U U112A U131A | -0.0045 |
| G42U G122A | -1.66 |
| A27U | -2.89 |
| U9A G35U C72U G77A C124G U126A | -5.65 |
| A18U G128C | -4.63 |
| C22A G45U C62U C73U | -5.77 |
| A6C G36U G51A U109C C115U | -6.39 |
| A111C | 0.388 |
| C12U A16U C20U G71C C114A G127U | -3.54 |
| U112G G135U | -1.01 |
| A75G U112A U131A | 1.22 |

| Variant | polymerase ribozyme fitness (log ratio) |
| --- | --- |
| U9C C12G C28U C73U G110C | -1.73 |
| C22U C72A | -3.91 |
| C12U U59G | 0.247 |
| A24C G39C C114U G120C | -5.54 |
| G39A G110C | -4.65 |
| G44U C82U U106G G120A | -0.344 |
| C104U G117A | -0.723 |
| U38A C114A A121U | -1.59 |
| C12G C115U U133A | -0.348 |
| C13U A26U G69C | -4.28 |
| C94A C114U | -2.56 |
| C56U G107A | -4.63 |
| U54G G117A | -2 |
| C12U G63A G113A | -1.59 |
| C22G A46C C62G A74U | -6.42 |
| U7A C12G C40G U106C C114G | -5.02 |
| C56A | -0.243 |
| G45A C99U | -4.32 |
| A74G C98G | -6.09 |
| C56G G93A A95G G113A G120C | -3.38 |
| U106C C123G U133G | -1.72 |
| C12G G47U U87G U116A C124A | -1.26 |
| A27U G44C G47C U112A | -3.34 |
| C20A G63A A74C U96A | -5.16 |

| Variant | polymerase ribozyme fitness (log ratio) |
| --- | --- |
| G48U A50U G60A C86G | -2.89 |
| A46G G113A G120U U133A | -3.17 |
| A121U C123U | 2.27 |
| C12U G17C C49U C82G C94U C99G C123A | -7.59 |
| C53U G113U | -1.43 |
| G39A G60A C86U U116A | -3.99 |
| C12G C13A A24G U106G C124A | -1.63 |
| G63A A105G | -3.92 |
| C3A G71C C79G A119G C123A | -1.16 |
| U33G G39C G110U | -6.35 |
| G48U C49A C115U U133C | -2.27 |
| G17C G42A A74G A84C A91U | -4.35 |
| C4A C104A | -2.32 |
| A5G U87C | -0.474 |
| C11A G69C A121G | -0.0496 |
| A6C A24G A26G U87G U112C A121G | -0.944 |
| A5C C73G C102A | -3.71 |
| G17A A41C G117U | -3.91 |
| C70A A83G C85A C88U | -2.53 |
| A6C U9G G69U A83G A91C G117U | -0.828 |
| G45A C82A | -1.1 |
| A16U C40A G51A U92C G113C U116C G117C | -6.65 |
| A16C A41U G52C C64G C82G G110C | -6.92 |
| C8A G47C C56G C82U U87A C101U G107U C115U A118C | -6.49 |

| Variant | polymerase ribozyme fitness (log ratio) |
| --- | --- |
| G25C G63U C99A C115A | -6.39 |
| C53U C97U | -0.844 |
| G122A C123G | 1.74 |
| C12G U96A | -0.352 |
| C3U G52A C62U A121U | 1.52 |
| C56A C115A U126C | -1.19 |
| G48U U92G | -3.54 |
| C15U C124U | 0.776 |
| C62A C97U | -1.52 |
| G19U C72U A84C | -2.82 |
| C28G U59G U81C G117C | -6.32 |
| C4G C86A | -2.95 |
| G48U C94U | -1.2 |
| A5C A37U G127U | -2.11 |
| A27U G44C U96C | -4.49 |
| C20U A43U C114G C123A | -2.41 |
| C56U G120C G127U | 2.09 |
| G10U U59C U96G G117A | -4.44 |
| G36A C72G G117A | -3.71 |
| A27U A105U | -4.58 |
| U9C A68G C86A C99A | -6.98 |
| A29U A46C G117C | -4.13 |
| U14G G61U | -1.11 |
| C13A G39C C76G U106C | -2.79 |

| Variant | polymerase ribozyme fitness (log ratio) |
| --- | --- |
| C49G G61C | -2.12 |
| C97U C114G | -3.36 |
| U14C A37U | -1.93 |
| G63A G135U | -1.49 |
| A43U A46U C97U | -3.34 |
| A5U G63U G110A | -2.89 |
| C20A G77U | -3.11 |
| C40U G120C | 0.116 |
| C3A C28U G57A G69U C82U | -3.79 |
| C15U C28U G44U C62U U87C U106C | -5.37 |
| A29U G69C C98U G113C | -4.71 |
| A2U C8G | -0.639 |
| G36U A121C U125A G127U G128C | -0.954 |
| A46G C49G G69C C104U | -3.16 |
| A50G C64U | 0.0869 |
| C34A C40A C49G G77A U112A C115G | -7.22 |
| C72A C94U G120C | 1.05 |
| C8U C49A | 0.373 |
| G117A A119G | 1.29 |
| A18C G39A | -3.32 |
| U33A U87A | -4.12 |
| G48C G57A | -0.626 |
| U87A A121G | 1.17 |
| G42C G44U A50C U125A | -3.27 |

| Variant | polymerase ribozyme fitness (log ratio) |
| --- | --- |
| A6C G47A C62U C86U U133G | -0.219 |
| G69U A103C U131C | -1.05 |
| G57U G63C A95C U112A G117A | -4.01 |
| G44U C72G G120C | -0.514 |
| C8A A37C | 0.0805 |
| C22U C73G C82A G120U U129A | -5.92 |
| U7C C8G C53G C101A | -0.517 |
| C13G C72U A119U | 0.275 |
| G57U C98U G110A U112G | -5.09 |
| G36U C70G C101A G120A | -3.68 |
| U9A G128C | -2.11 |
| G57A C64G U67G U81A A111U | -6.28 |
| C53U C70U A74G | -3.92 |
| C101G G117A | -3.52 |
| C86A G120C | -0.326 |
| G42A C56A U112A G120A | -4.77 |
| G45A G63C G110A | -1.54 |
| G36C C40A C62U C72U | -4.22 |
| A6U C53A G63U A100U | -3.98 |
| G47A A95C | -1.79 |
| C3U C40U A43G C53U C124U | -1.48 |
| C12A C22U U78C A121U | -2.5 |
| A103U U130A | -4.14 |
